Substrate in series [1]: CCCCCCCCCCCCOS(=O)(=O)O
The series is described as follows: isothermal titration calorimetry, enzyme rate assay. The class given is biochemical, Pseudomonas sp. Particulars: 25 °C, 25 mM Tris/HCl pH 8.0, 200 mM NaCl, 25 nM enzyme.

Series [2] deals with the molecule itself. The series is described as follows: crystal structure; SdsAP at 27.5 mg/ml, sitting drop vapor diffusion at 293 K, 0.1 M sodium acetate pH 4.5, 0.05 M magnesium acetate, 20% PEG 4000; two monomers in the asymmetric unit; 1.76 Å.

B1: alkylsulfatase SdsAP from Pseudomonas sp. S9 (enzyme, UniProt F2WP51 42-674, looked up)
chain: AETAKPATDATKAANDALLKELPFDDKTSFDLAHKGFIAPLPAEPIKGEKGNMIWDPSKYGFIKEGEAAPDTTNPSLWRQSQLINISGLFEVTDGIYQVRNYDLSNMTIVEGKDGITIFDPLISQETAKAALDLYYKHRPKKPVVAVIYTHSHVDHYGGVRGVVDEADVKAGKVKIYAPLGFLEHAVAENVMAGTAMSRRASYMYGNLLPPDAKGQLGAGLGTTTSAGTVTLIPPTDIIKETGETHVIDGLTYEFMYAPGSEAPAEMLYYIKEKKALNAAEDSTHTLHNTYSLRGAKIRDPLAWSKYLNEALKLWGDDVQVMYAMHHWPVWGNKEVREQLSLQRDMYRYINDETLRLANKGYTMTEIAEQVKLPKKIATKFSNRGYYGSLNHNVKATYVLYLGWFIGNPATLWELPPADKAKRYVEMMGGADAVLKKAKEYYDKGDFRWVAEVVNHVVFAEPNNQAAKNMQADALEQLGYQAESGPWRNFYLTGAQELRNGVQQLPTPDTASPDTVKAMDLDLFFDFLAMRLKGPDVADKHITLNLDFTDLKQKYTLEMVNGVLNHTEGMQAKNADATVTLTRETLNNVMLKQTTLKDAESSGDIKIEGDKGKLEELMSYMDNFDFWFNIVTP
notes: SdsAP, type III alkylsulfatase of Pseudomonas sp; S9 (F2WP51); N-terminal signal peptide of 41 amino acids truncated; domains in the structure: 42-401 metallo-beta-lactamase like, 402-543 dimerization, 544-674 SCP-2-like; that this removes the His tag is inferred; source: E. coli BL21 (DE3), purified (IMAC, thrombin digestion, Mono Q, Superdex 200)
By Km is commonly meant the substrate concentration at which the rate is half of its maximum. As a reminder, the kcat is the number of substrate molecules converted per active site and unit of time at saturation. As usually defined, the stoichiometry N is a count of units in the complex or per binding partner. As to B1, in series [1], the Km came out at 74.2 ± 10 µM and the turnover number (kcat) was 4.88 ± 0.17 s⁻¹. In addition, in series [2], the “stoichiometry N” value amounted to 2.

(Values after paper PMC5426288, “Crystal structure of thermostable alkylsulfatase SdsAP from Pseudomonas sp. S9” (Bioscience Reports, 2017).)
